Experimental data as given in US7709002.
Blank lines part the entries; values can stand above or below the substance they belong to.

Tests used:
HLA-A2 (human) [1] = test: T2 bioassay (peptide 50 µg/ml + b2m 3 µg/ml, overnight), flow cytometry, stained with anti-HLA-A2 MAb
HLA-A2 (human) [2] = test: T2 bioassay (peptide 50 µg/ml + b2m 3 µg/ml, overnight), flow cytometry, stained with pan class I MAb W6/32
[3] = biological target: ras p21 proteins of the Calu-1 lung carcinoma cell line (K-ras Cys12 mutation) (human) (UniProt P01116); test: cell-based or functional assay
HLA-A2 (human) [4] = test: T2 bioassay, isotype-matched control MAb staining of T2 cells incubated with ras5-14(C12)
HLA-A2 (human) [5] = test: T2 bioassay, isotype-matched control MAb staining of T2 cells incubated with ras5-13(V12)
HLA-A2 (human) [6] = test: T2 bioassay, no peptide, flow cytometry, isotype-matched control MAb staining of T2 cells
HLA-A2 (human) [7] = test: T2 bioassay, isotype-matched control MAb staining of T2 cells incubated with ras5-14(V12)
HLA-A2 (human) [8] = test: T2 bioassay, isotype-matched control MAb staining of T2 cells incubated with CEA571-579
HLA-A2 (human) [9] = test: T2 bioassay, isotype-matched control MAb staining of T2 cells incubated with ras5-14(G12)
HLA-A2 (human) [10] = test: T2 bioassay, isotype-matched control MAb staining of T2 cells incubated with ras8-16(V12)
HLA-A2 (human) [11] = test: T2 bioassay, isotype-matched control MAb staining of T2 cells incubated with ras5-12(V12)
[12] = biological target: ras p21 proteins of the Calu-1 lung carcinoma cell line (K-ras Cys12 mutation) (human) (UniProt P01116); test: flow cytometry, fixed permeabilised Calu-1 cells, isotype-matched control UPC-10
[13] = biological target: ras p21 proteins of the HT-29 colon carcinoma cell line (no known ras codon 12 point mutation) (human) (UniProt P01116); test: flow cytometry, fixed permeabilised HT29 cells, isotype-matched control UPC-10
HLA-A2 (human) [14] = test: T2 bioassay, isotype-matched control MAb staining of T2 cells incubated with ras5-14(D12)
[15] = biological target: ras p21 proteins of the SW480 colon carcinoma cell line (K-ras Val12 mutation) (human) (UniProt P01116); test: flow cytometry, fixed permeabilised SW480 cells, isotype-matched control UPC-10
HLA-A2 (human) [16] = test: T2 bioassay, isotype-matched control MAb staining of T2 cells incubated with ras5-17(D12)
[17] = biological target: MHC class I (HLA class I) molecules; test: T2 bioassay, no peptide (b2m 3 µg/ml only), flow cytometry, staining of T2 cells with pan class I MAb W6/32; baseline
[18] = biological target: MHC class I (HLA class I) molecules; test: flow cytometry, HT29 cells, W6/32
[19] = biological target: MHC class I (HLA class I) molecules; test: flow cytometry, Calu-1 cells, W6/32
[20] = biological target: MHC class I (HLA class I) molecules; test: flow cytometry, SW480 cells, W6/32
[21] = biological target: ras p21 proteins of the Calu-1 lung carcinoma cell line (K-ras Cys12 mutation) (human) (UniProt P01116); test: flow cytometry, fixed permeabilised Calu-1 cells, RAS 10 at 3 µg/ml
[22] = biological target: ras p21 proteins of the Calu-1 lung carcinoma cell line (K-ras Cys12 mutation) (human) (UniProt P01116); test: flow cytometry, fixed permeabilised Calu-1 cells, RAS 10 at 10 µg/ml
[23] = biological target: ras p21 proteins of the SW480 colon carcinoma cell line (K-ras Val12 mutation) (human) (UniProt P01116); test: flow cytometry, fixed permeabilised SW480 cells, RAS 10 at 3 µg/ml
[24] = biological target: ras p21 proteins of the Calu-1 lung carcinoma cell line (K-ras Cys12 mutation) (human) (UniProt P01116); test: flow cytometry, fixed permeabilised Calu-1 cells, RAS 10 at 1 µg/ml
[25] = biological target: ras p21 proteins of the HT-29 colon carcinoma cell line (no known ras codon 12 point mutation) (human) (UniProt P01116); test: flow cytometry, fixed permeabilised HT29 cells, RAS 10 at 1 µg/ml
[26] = biological target: ras p21 proteins of the HT-29 colon carcinoma cell line (no known ras codon 12 point mutation) (human) (UniProt P01116); test: flow cytometry, fixed permeabilised HT29 cells, RAS 10 at 3 µg/ml
[27] = biological target: ras p21 proteins of the SW480 colon carcinoma cell line (K-ras Val12 mutation) (human) (UniProt P01116); test: flow cytometry, fixed permeabilised SW480 cells, RAS 10 at 10 µg/ml
[28] = biological target: ras p21 proteins of the HT-29 colon carcinoma cell line (no known ras codon 12 point mutation) (human) (UniProt P01116); test: flow cytometry, fixed permeabilised HT29 cells, RAS 10 at 10 µg/ml
[29] = biological target: ras p21 proteins of the SW480 colon carcinoma cell line (K-ras Val12 mutation) (human) (UniProt P01116); test: flow cytometry, fixed permeabilised SW480 cells, RAS 10 at 1 µg/ml
[30] = biological target: ras p21 proteins of the SW480 colon carcinoma cell line (K-ras Val12 mutation) (human) (UniProt P01116); test: sandwich ELISA, RAS 10 capture, Y13-238 detection, SW480 lysate 7.5 µg protein
[31] = biological target: ras p21 proteins of the Calu-1 lung carcinoma cell line (K-ras Cys12 mutation) (human) (UniProt P01116); test: sandwich ELISA, RAS 10 capture, Y13-238 detection, Calu-1 lysate 7.5 µg protein
[32] = biological target: ras p21 proteins of the HT-29 colon carcinoma cell line (no known ras codon 12 point mutation) (human) (UniProt P01116); test: sandwich ELISA, RAS 10 capture, Y13-238 detection, HT29 lysate 75 µg protein
[33] = biological target: ras p21 proteins of the HT-29 colon carcinoma cell line (no known ras codon 12 point mutation) (human) (UniProt P01116); test: sandwich ELISA, RAS 10 capture, Y13-238 detection, HT29 lysate 7.5 µg protein
[34] = biological target: ras p21 proteins of the Calu-1 lung carcinoma cell line (K-ras Cys12 mutation) (human) (UniProt P01116); test: sandwich ELISA, RAS 10 capture, Y13-238 detection, Calu-1 lysate 75 µg protein
[35] = biological target: ras p21 proteins of the SW480 colon carcinoma cell line (K-ras Val12 mutation) (human) (UniProt P01116); test: sandwich ELISA, RAS 10 capture, Y13-238 detection, SW480 lysate 75 µg protein
[36] = biological target: ras p21 proteins of the Calu-1 lung carcinoma cell line (K-ras Cys12 mutation) (human) (UniProt P01116); test: sandwich ELISA, RAS 10 capture of Calu-1 lysate, rat anti-mouse B7.1 in place of the detection MAb
[37] = biological target: ras p21 proteins of the HT-29 colon carcinoma cell line (no known ras codon 12 point mutation) (human) (UniProt P01116); test: sandwich ELISA, RAS 10 capture of HT29 lysate, rat anti-mouse B7.1 in place of the detection MAb
[38] = biological target: ras p21 proteins of the SW480 colon carcinoma cell line (K-ras Val12 mutation) (human) (UniProt P01116); test: sandwich ELISA, RAS 10 capture of SW480 lysate, rat anti-mouse B7.1 in place of the detection MAb

MFI (HLA-A2 (human) [1]): 680
MFI (HLA-A2 (human) [2]): 991
Substance: CEA571-579 peptide (from UniProt P06731 571-579)

Proliferation Response (3H-thymidine uptake, cpm) of the CD4+ T cell line of patient 43 to Calu-1 extract (250 µg protein) on wells coated with isotype-matched MAb UPC-10, with BLCL [3]: 7320 cpm
Substance: isotype-matched (IgG2a) MAb UPC-10

MFI (HLA-A2 (human) [4]): 61.4
MFI (HLA-A2 (human) [5]): 54.1
MFI (HLA-A2 (human) [6]): 84
MFI (HLA-A2 (human) [7]): 38.1
MFI (HLA-A2 (human) [8]): 48.4
MFI (HLA-A2 (human) [9]): 41.3
MFI (HLA-A2 (human) [10]): 39.6
MFI (HLA-A2 (human) [11]): 44.2
Percent Positive Cells [12]: 1%
Percent Positive Cells [13]: 11.6%
MFI (HLA-A2 (human) [14]): 50.8
Percent Positive Cells [15]: 5.3%
MFI (HLA-A2 (human) [16]): 46.5
Substance: isotype-matched (IgG2a) MAb UPC-10 (antibody)

MFI [17]: 230
MFI [18]: 1310
Percent Positive Cells [18]: 93.5%
MFI [19]: 1620
Percent Positive Cells [19]: 93.4%
MFI [20]: 1180
Percent Positive Cells [20]: 84.2%
Substance: pan HLA class I MAb W6/32 (antibody)

Proliferation Response (3H-thymidine uptake, cpm) of the CD4+ T cell line of patient 43 to Calu-1 extract (250 µg protein) on wells coated with RAS 10, with BLCL [3]: 80500 cpm
Substance: pan-ras MAb, clone RAS 10

MFI [21]: 225
Percent Positive Cells [21]: 87.8%
MFI [22]: 332
Percent Positive Cells [22]: 90.6%
MFI [23]: 386
Percent Positive Cells [23]: 82.8%
MFI [24]: 176
Percent Positive Cells [24]: 59.8%
MFI [25]: 233
Percent Positive Cells [25]: 58.6%
MFI [26]: 304
Percent Positive Cells [26]: 83.4%
MFI [27]: 631
Percent Positive Cells [27]: 83.4%
MFI [28]: 423
Percent Positive Cells [28]: 93.1%
MFI [29]: 273
Percent Positive Cells [29]: 67%
Substance: pan-ras MAb, clone RAS 10 (antibody)

Immunoreactivity (A490) [30]: 1.5 A490
Immunoreactivity (A490) [31]: 1.29 A490
Immunoreactivity (A490) [32]: 1.49 A490
Immunoreactivity (A490) [33]: 0.99 A490
Immunoreactivity (A490) [34]: 1.5 A490
Immunoreactivity (A490) [35]: 1.59 A490
Substance: ras MAb, clone Y13-238 (antibody)

Immunoreactivity (A490) [36]: 0.299 A490
Immunoreactivity (A490) [37]: 0.283 A490
Immunoreactivity (A490) [38]: 0.333 A490
Substance: rat IgG2a anti-mouse B7.1 MAb (antibody)
